Source: patent US20130217027A1

What was measured:
[1] = target: IS (1): peptide ARTK(me3)QTAR conjugated to a 125 bp DNA strand (H3K4me3-IS); assay: ChIP of spiked conjugate, qPCR primer set H3K4me3_qPCR_short, well K1
[2] = target: IS (1): peptide ARTK(me3)QTAR conjugated to a 125 bp DNA strand (H3K4me3-IS); assay: ChIP of spiked conjugate, qPCR primer set H3K4me3_qPCR_short, well K2
[3] = target: IS (2): peptide ARTKQTAR without the methylation modification conjugated to a 125 bp DNA strand (Control-IS); assay: ChIP qPCR primer set H3_qPCR; ratio of H3K4me3-antibody ChIP over H3K36me3-antibody ChIP
[4] = target: IS (1): peptide ARTK(me3)QTAR conjugated to a 125 bp DNA strand (H3K4me3-IS); assay: ChIP qPCR primer set H3K4me3_qPCR_Vshort; ratio of H3K4me3-antibody ChIP over H3K36me3-antibody ChIP
[5] = target: IS (2): peptide ARTKQTAR without the methylation modification conjugated to a 125 bp DNA strand (Control-IS); assay: ChIP of spiked conjugate, qPCR primer set H3_qPCR_short, well I2
[6] = target: IS (2): peptide ARTKQTAR without the methylation modification conjugated to a 125 bp DNA strand (Control-IS); assay: ChIP qPCR primer set H3_qPCR_short; ratio of H3K4me3-antibody ChIP over H3K36me3-antibody ChIP
[7] = target: IS (2): peptide ARTKQTAR without the methylation modification conjugated to a 125 bp DNA strand (Control-IS); assay: ChIP of spiked conjugate, qPCR primer set H3_qPCR, well A1
[8] = target: IS (2): peptide ARTKQTAR without the methylation modification conjugated to a 125 bp DNA strand (Control-IS); assay: ChIP of spiked conjugate, qPCR primer set H3_qPCR_short, well I1
[9] = target: IS (2): peptide ARTKQTAR without the methylation modification conjugated to a 125 bp DNA strand (Control-IS); assay: ChIP of spiked conjugate, qPCR primer set H3_qPCR_long, well E1
[10] = target: IS (1): peptide ARTK(me3)QTAR conjugated to a 125 bp DNA strand (H3K4me3-IS); assay: ChIP qPCR primer set H3K4me3_qPCR_long; ratio of H3K4me3-antibody ChIP over H3K36me3-antibody ChIP
[11] = target: IS (1): peptide ARTK(me3)QTAR conjugated to a 125 bp DNA strand (H3K4me3-IS); assay: ChIP of spiked conjugate, qPCR primer set H3K4me3_qPCR_long, well G2
[12] = target: IS (2): peptide ARTKQTAR without the methylation modification conjugated to a 125 bp DNA strand (Control-IS); assay: ChIP of spiked conjugate, qPCR primer set H3_qPCR_long, well E2
[13] = target: IS (1): peptide ARTK(me3)QTAR conjugated to a 125 bp DNA strand (H3K4me3-IS); assay: ChIP of spiked conjugate, qPCR primer set H3K4me3_qPCR_Vshort, well M1
[14] = target: IS (1): peptide ARTK(me3)QTAR conjugated to a 125 bp DNA strand (H3K4me3-IS); assay: ChIP qPCR primer set H3K4me3_qPCR; ratio of H3K4me3-antibody ChIP over H3K36me3-antibody ChIP
[15] = target: IS (1): peptide ARTK(me3)QTAR conjugated to a 125 bp DNA strand (H3K4me3-IS); assay: ChIP with 100 fg of internal standard spiked after sonication, qPCR
[16] = target: IS (1): peptide ARTK(me3)QTAR conjugated to a 125 bp DNA strand (H3K4me3-IS); assay: ChIP qPCR primer set H3K4me3_qPCR_short; ratio of H3K4me3-antibody ChIP over H3K36me3-antibody ChIP
[17] = target: IS (1): peptide ARTK(me3)QTAR conjugated to a 125 bp DNA strand (H3K4me3-IS); assay: ChIP qPCR primer set H3K4me3_qPCR_Vshort; enrichment of H3K4me3-IS normalised to Control-IS
[18] = target: IS (1): peptide ARTK(me3)QTAR conjugated to a 125 bp DNA strand (H3K4me3-IS); assay: ChIP qPCR primer set H3K4me3_qPCR_short; enrichment of H3K4me3-IS normalised to Control-IS (H3_qPCR_short)
[19] = target: IS (1): peptide ARTK(me3)QTAR conjugated to a 125 bp DNA strand (H3K4me3-IS); assay: ChIP of spiked conjugate, qPCR primer set H3K4me3_qPCR, well C2
[20] = target: IS (1): peptide ARTK(me3)QTAR conjugated to a 125 bp DNA strand (H3K4me3-IS); assay: ChIP of spiked conjugate, qPCR primer set H3K4me3_qPCR, well C1
[21] = target: IS (2): peptide ARTKQTAR without the methylation modification conjugated to a 125 bp DNA strand (Control-IS); assay: ChIP qPCR primer set H3_qPCR_long; ratio of H3K4me3-antibody ChIP over H3K36me3-antibody ChIP
[22] = target: IS (2): peptide ARTKQTAR without the methylation modification conjugated to a 125 bp DNA strand (Control-IS); assay: ChIP of spiked conjugate, qPCR primer set H3_qPCR, well A2
[23] = target: IS (1): peptide ARTK(me3)QTAR conjugated to a 125 bp DNA strand (H3K4me3-IS); assay: ChIP of spiked conjugate, qPCR primer set H3K4me3_qPCR_Vshort, well M2
[24] = target: IS (1): peptide ARTK(me3)QTAR conjugated to a 125 bp DNA strand (H3K4me3-IS); assay: ChIP qPCR primer set H3K4me3_qPCR_long; enrichment of H3K4me3-IS normalised to Control-IS (H3_qPCR_long)
[25] = target: IS (1): peptide ARTK(me3)QTAR conjugated to a 125 bp DNA strand (H3K4me3-IS); assay: ChIP of spiked conjugate, qPCR primer set H3K4me3_qPCR_long, well G1
[26] = target: IS (1): peptide ARTK(me3)QTAR conjugated to a 125 bp DNA strand (H3K4me3-IS); assay: ChIP qPCR primer set H3K4me3_qPCR; enrichment of H3K4me3-IS normalised to Control-IS (H3_qPCR)
[27] = target: IS (1): peptide ARTK(me3)QTAR conjugated to a 125 bp DNA strand (H3K4me3-IS); assay: ChIP with 10 fg of internal standard spiked after sonication, qPCR
[28] = target: IS (2): peptide ARTKQTAR without the methylation modification conjugated to a 125 bp DNA strand (Control-IS); assay: ChIP of spiked conjugate, qPCR primer set H3_qPCR_long, well E4
[29] = target: IS (1): peptide ARTK(me3)QTAR conjugated to a 125 bp DNA strand (H3K4me3-IS); assay: ChIP of spiked conjugate, qPCR primer set H3K4me3_qPCR_Vshort, well M4
[30] = target: IS (2): peptide ARTKQTAR without the methylation modification conjugated to a 125 bp DNA strand (Control-IS); assay: ChIP of spiked conjugate, qPCR primer set H3_qPCR_long, well E3
[31] = target: IS (1): peptide ARTK(me3)QTAR conjugated to a 125 bp DNA strand (H3K4me3-IS); assay: ChIP of spiked conjugate, qPCR primer set H3K4me3_qPCR_long, well G4
[32] = target: IS (1): peptide ARTK(me3)QTAR conjugated to a 125 bp DNA strand (H3K4me3-IS); assay: ChIP of spiked conjugate, qPCR primer set H3K4me3_qPCR_short, well K4
[33] = target: IS (1): peptide ARTK(me3)QTAR conjugated to a 125 bp DNA strand (H3K4me3-IS); assay: ChIP of spiked conjugate, qPCR primer set H3K4me3_qPCR, well C3
[34] = target: IS (2): peptide ARTKQTAR without the methylation modification conjugated to a 125 bp DNA strand (Control-IS); assay: ChIP of spiked conjugate, qPCR primer set H3_qPCR, well A4
[35] = target: IS (2): peptide ARTKQTAR without the methylation modification conjugated to a 125 bp DNA strand (Control-IS); assay: ChIP of spiked conjugate, qPCR primer set H3_qPCR, well A3
[36] = target: IS (1): peptide ARTK(me3)QTAR conjugated to a 125 bp DNA strand (H3K4me3-IS); assay: ChIP of spiked conjugate, qPCR primer set H3K4me3_qPCR_Vshort, well M3
[37] = target: IS (1): peptide ARTK(me3)QTAR conjugated to a 125 bp DNA strand (H3K4me3-IS); assay: ChIP of spiked conjugate, qPCR primer set H3K4me3_qPCR, well C4
[38] = target: IS (1): peptide ARTK(me3)QTAR conjugated to a 125 bp DNA strand (H3K4me3-IS); assay: ChIP of spiked conjugate, qPCR primer set H3K4me3_qPCR_long, well G3
[39] = target: IS (1): peptide ARTK(me3)QTAR conjugated to a 125 bp DNA strand (H3K4me3-IS); assay: ChIP of spiked conjugate, qPCR primer set H3K4me3_qPCR_short, well K3
[40] = target: IS (2): peptide ARTKQTAR without the methylation modification conjugated to a 125 bp DNA strand (Control-IS); assay: ChIP of spiked conjugate, qPCR primer set H3_qPCR_short, well I3
[41] = target: IS (2): peptide ARTKQTAR without the methylation modification conjugated to a 125 bp DNA strand (Control-IS); assay: ChIP of spiked conjugate, qPCR primer set H3_qPCR_short, well I4

## antibody specific for H3K4me3 (Millipore, catalogue Number: 07-473, rabbit, polyclonal)
[1]
  Cp (qPCR): 14.2
[2]
  Cp (qPCR): 14.9
[3]
  K4/K36: 1.16 fold
[4]
  K4/K36: 75.6 fold
[5]
  Cp (qPCR): 19.9
[6]
  K4/K36: 0.871 fold
[7]
  Cp (qPCR): 20.4
[8]
  Cp (qPCR): 19.5
[9]
  Cp (qPCR): 20.4
[10]
  K4/K36: 37.8 fold
[11]
  Cp (qPCR): 15.6
[12]
  Cp (qPCR): 20.5
[13]
  Cp (qPCR): 14
[14]
  K4/K36: 30.9 fold
[15]
  qPCR cycle of enrichment: 26 cycle
[16]
  K4/K36: 45.9 fold
[17]
  (K4/K36)^K4-ChIP/(K4/K36)^K36-ChIP: 86.8 fold
[18]
  (K4/K36)^K4-ChIP/(K4/K36)^K36-ChIP: 52.7 fold
[19]
  Cp (qPCR): 15.2
[20]
  Cp (qPCR): 14.7
[21]
  K4/K36: 0.862 fold
[22]
  Cp (qPCR): 20.4
[23]
  Cp (qPCR): 14.4
[24]
  (K4/K36)^K4-ChIP/(K4/K36)^K36-ChIP: 43.9 fold
[25]
  Cp (qPCR): 15.2
[26]
  (K4/K36)^K4-ChIP/(K4/K36)^K36-ChIP: 26.6 fold
[27]
  qPCR cycle of enrichment: 30 cycle

## non-relevant control antibody that should recognize H3K36me3 (Abcam, catalogue Number: ab9050, rabbit, polyclonal)
[28]
  Cp (qPCR): 19.9
[29]
  Cp (qPCR): 20.9
[30]
  Cp (qPCR): 20.6
[31]
  Cp (qPCR): 20.9
[32]
  Cp (qPCR): 20.2
[33]
  Cp (qPCR): 19.9
[34]
  Cp (qPCR): 21
[35]
  Cp (qPCR): 20.3
[36]
  Cp (qPCR): 20.1
[37]
  Cp (qPCR): 19.9
[38]
  Cp (qPCR): 20.4
[39]
  Cp (qPCR): 19.9
[40]
  Cp (qPCR): 19.1
[41]
  Cp (qPCR): 19.9
